Columns and labels:
Experiment in all cases: cryo-EM structure
[1] = molecular target: CCT1 subunit of yeast TRiC (S. cerevisiae, UniProt P12612 1-559)
[2] = molecular target: CCT4 subunit of yeast TRiC (S. cerevisiae, UniProt P39078 1-528)
[3] = molecular target: CCT3 subunit of yeast TRiC (S. cerevisiae, UniProt P39077 1-534)
[4] = molecular target: CCT7 subunit of yeast TRiC (S. cerevisiae, UniProt P42943 1-550)
[5] = molecular target: CCT2 subunit of yeast TRiC (S. cerevisiae, UniProt P39076 1-527)
CCT2 subunit of yeast TRiC, sequence (P39076 whole entry): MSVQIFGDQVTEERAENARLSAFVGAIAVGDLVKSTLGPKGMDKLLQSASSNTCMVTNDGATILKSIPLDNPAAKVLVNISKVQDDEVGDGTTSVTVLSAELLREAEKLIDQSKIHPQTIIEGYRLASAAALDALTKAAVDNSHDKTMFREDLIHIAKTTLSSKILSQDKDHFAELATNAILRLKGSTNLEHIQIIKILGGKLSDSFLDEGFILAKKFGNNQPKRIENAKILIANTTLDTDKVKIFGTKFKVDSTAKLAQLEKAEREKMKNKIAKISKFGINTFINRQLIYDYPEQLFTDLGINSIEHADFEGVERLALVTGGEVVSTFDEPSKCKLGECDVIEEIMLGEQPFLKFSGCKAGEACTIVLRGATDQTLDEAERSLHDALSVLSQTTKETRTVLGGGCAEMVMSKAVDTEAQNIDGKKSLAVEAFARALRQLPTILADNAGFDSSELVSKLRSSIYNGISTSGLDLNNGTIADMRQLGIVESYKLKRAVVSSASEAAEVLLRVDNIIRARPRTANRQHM

[6] = molecular target: CCT6 subunit of yeast TRiC (S. cerevisiae, UniProt P39079 1-546)
CCT6 subunit of yeast TRiC, sequence (P39079 whole entry): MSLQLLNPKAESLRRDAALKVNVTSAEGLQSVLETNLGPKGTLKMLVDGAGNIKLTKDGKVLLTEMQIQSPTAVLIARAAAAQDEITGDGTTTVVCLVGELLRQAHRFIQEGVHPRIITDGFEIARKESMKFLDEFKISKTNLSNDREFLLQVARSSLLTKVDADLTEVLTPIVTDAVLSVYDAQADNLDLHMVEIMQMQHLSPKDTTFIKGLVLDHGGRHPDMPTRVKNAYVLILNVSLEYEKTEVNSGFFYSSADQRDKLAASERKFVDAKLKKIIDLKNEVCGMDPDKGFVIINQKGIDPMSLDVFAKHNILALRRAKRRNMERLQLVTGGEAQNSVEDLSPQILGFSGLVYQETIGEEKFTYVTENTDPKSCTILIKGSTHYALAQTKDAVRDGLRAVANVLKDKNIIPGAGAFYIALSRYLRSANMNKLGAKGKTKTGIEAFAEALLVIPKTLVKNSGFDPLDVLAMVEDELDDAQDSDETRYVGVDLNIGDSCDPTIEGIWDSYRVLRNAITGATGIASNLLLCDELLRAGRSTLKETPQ

[7] = molecular target: CCT5 subunit of yeast TRiC (S. cerevisiae, UniProt P40413 1-562)
CCT5 subunit of yeast TRiC, sequence (P40413 whole entry): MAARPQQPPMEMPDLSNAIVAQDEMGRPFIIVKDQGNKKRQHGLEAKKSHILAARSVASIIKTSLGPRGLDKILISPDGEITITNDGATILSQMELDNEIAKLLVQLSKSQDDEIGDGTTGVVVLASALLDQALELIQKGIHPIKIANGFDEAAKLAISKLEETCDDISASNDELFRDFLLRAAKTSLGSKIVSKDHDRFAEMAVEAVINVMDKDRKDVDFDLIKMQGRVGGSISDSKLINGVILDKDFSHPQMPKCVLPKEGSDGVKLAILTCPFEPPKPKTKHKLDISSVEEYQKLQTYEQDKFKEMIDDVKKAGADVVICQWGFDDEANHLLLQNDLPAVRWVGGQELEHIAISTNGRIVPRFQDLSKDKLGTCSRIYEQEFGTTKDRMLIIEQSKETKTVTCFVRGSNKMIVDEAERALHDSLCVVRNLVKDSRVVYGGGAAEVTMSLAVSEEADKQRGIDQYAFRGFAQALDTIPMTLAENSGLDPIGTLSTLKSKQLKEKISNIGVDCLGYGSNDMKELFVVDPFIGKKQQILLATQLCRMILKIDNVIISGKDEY

Measured: binding result

CCT3 subunit of yeast TRiC, sequence (P39077 whole entry): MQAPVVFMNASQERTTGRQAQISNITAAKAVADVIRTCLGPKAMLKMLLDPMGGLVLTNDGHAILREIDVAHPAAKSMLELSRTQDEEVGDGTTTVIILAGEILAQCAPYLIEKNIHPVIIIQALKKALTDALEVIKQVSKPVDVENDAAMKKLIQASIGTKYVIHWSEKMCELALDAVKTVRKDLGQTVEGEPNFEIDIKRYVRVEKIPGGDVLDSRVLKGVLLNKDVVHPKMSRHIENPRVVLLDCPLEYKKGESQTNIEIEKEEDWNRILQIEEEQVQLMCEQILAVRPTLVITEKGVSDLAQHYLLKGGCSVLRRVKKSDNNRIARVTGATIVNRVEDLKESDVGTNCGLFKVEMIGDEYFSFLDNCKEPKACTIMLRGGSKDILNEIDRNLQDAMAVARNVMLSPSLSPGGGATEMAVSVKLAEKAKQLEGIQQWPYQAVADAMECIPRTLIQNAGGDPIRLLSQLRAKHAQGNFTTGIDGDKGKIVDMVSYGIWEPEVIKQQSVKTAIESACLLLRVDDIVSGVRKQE
CCT1 subunit of yeast TRiC, sequence (P12612 whole entry): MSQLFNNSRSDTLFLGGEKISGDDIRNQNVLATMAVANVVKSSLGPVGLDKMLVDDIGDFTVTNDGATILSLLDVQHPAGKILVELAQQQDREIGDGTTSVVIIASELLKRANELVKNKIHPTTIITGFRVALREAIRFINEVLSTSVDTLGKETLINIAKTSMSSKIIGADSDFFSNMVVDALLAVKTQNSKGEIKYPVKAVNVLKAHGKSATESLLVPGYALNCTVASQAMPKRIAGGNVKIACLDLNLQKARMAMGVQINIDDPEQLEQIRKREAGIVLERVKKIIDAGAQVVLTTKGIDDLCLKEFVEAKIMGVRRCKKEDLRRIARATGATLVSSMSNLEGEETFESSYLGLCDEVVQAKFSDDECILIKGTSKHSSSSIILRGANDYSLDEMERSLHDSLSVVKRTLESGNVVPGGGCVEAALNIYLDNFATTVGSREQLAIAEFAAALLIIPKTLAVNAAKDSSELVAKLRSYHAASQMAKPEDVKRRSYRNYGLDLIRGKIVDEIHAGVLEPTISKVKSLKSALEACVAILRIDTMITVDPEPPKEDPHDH
CCT4 subunit of yeast TRiC, sequence (P39078 whole entry): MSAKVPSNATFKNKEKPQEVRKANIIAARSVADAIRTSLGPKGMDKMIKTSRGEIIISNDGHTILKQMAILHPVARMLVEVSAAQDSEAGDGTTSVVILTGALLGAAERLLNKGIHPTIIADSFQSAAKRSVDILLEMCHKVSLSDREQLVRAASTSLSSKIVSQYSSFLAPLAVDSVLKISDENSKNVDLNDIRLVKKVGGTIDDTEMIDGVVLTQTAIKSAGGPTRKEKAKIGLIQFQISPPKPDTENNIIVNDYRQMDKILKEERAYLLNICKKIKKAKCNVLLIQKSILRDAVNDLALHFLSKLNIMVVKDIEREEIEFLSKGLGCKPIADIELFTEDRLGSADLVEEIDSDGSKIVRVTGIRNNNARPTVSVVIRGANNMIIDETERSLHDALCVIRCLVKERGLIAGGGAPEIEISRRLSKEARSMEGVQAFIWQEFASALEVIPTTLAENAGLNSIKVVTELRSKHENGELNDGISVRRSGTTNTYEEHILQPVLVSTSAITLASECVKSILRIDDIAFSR
CCT7 subunit of yeast TRiC, sequence (P42943 whole entry): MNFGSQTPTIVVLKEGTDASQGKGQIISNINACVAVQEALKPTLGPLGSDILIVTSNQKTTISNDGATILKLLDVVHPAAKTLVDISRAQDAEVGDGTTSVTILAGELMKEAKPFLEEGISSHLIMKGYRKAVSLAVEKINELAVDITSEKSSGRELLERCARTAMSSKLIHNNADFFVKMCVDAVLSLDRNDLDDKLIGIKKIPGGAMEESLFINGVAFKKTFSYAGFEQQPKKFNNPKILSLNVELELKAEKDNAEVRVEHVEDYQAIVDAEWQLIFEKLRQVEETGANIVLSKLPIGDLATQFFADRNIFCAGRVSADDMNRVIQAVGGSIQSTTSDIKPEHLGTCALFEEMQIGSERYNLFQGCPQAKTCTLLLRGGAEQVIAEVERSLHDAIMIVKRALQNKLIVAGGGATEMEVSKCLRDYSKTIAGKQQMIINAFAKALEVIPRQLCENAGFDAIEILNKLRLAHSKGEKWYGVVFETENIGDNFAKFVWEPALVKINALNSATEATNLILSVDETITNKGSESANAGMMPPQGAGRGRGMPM

B1: yeast plp2 (homolog of PhLP2 in Saccharomyces cerevisiae) (natural protein, S. cerevisiae)
chain: MQNEPMFQVQVDESEDSEWNDILRAKGVIPERAPSPTAKLEEALEEAIAKQHENRLEDKDLSDLEELEDDEDEDFLEAYKIKRLNEIRKLQERSKFGEVFHINKPEYNKEVTLASQGKKYEGAQTNDNGEEDDGGVYVFVHLSLQSKLQSRILSHLFQSAACKFREIKFVEIPANRAIENYPESNCPTLIVYYRGEVIKNMITLLELGGNNSKMEDFEDFMVKVGAVAEGDNRLIMNRDDEESREERKLHYGEKKSIRSGIRGKFNVGIGGNDDGNINDDDDGFFD
binds: all assays above
